We go through two molecules from patent US20120244080A1 (GEORGIA STATE UNIVERSITY RESEARCH FOUNDATION, published 2012).

The target in assay [1] is T1, GLP-1 receptor (GLP-1R) on rat insulinoma RINm5F cells (rat (RINm5F rat insulinoma cells), UniProt P32301 22-463).
T1 sequence (looked up): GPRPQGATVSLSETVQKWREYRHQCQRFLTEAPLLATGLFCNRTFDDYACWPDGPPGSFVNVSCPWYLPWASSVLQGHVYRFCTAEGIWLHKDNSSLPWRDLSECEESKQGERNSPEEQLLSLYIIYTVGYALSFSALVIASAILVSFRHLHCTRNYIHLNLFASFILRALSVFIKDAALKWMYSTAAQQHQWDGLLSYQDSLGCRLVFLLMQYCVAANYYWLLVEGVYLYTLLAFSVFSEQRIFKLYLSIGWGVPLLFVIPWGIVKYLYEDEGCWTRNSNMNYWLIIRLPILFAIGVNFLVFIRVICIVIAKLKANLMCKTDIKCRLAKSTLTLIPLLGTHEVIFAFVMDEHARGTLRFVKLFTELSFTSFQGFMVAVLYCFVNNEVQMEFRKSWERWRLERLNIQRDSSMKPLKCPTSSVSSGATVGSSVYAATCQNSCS
The experiment in a line: cell-based or functional assay.

The target of assay [2] is T1, GLP-1 receptor (GLP-1R) on rat …. The experiment in a line: immunofluorescence staining of RINm5F cells (GLP-1R expressing) after 30 min at 37 °C, detected with rabbit polyclonal anti-calbindin D9k. The procedure:
The cells were extensively washed after 30 min treatments under 37° C. in microscopic chamber slides and subsequently fixed. […] The light shading represents antibody staining.
It is well known that GLP-1R is expressed in RINm5F but not in CHO cells. […] Similar binding analyses were carried out with RINm5F cells and a […] (αTC1).

B1: Fusion Protein Cal.GLP (human Calbindin D9k-GLP-1 fusion protein) (designed binder)
chain: MSTKKSPEELKRIFEKYAAKEGDPDQLSKDELKLLIQAEFPSLLKGPNTLDDLFQELDKNGHAEGTFTSDVSSYLEGQAAKEFIAWLVKGRG
For the molecule B1, the “intracellular cAMP level in rat insulinoma RINm5F cells (Lance cAMP 384 kit), IC50” value in assay [1] was ~20 nM.

B2: Human Calbindin D9k (other)
chain: STKKSPEELKRIFEKYAAKEGDPDQLSKDELKLLIQAEFPSLLKGPNTLDDLFQELDKNGDGEVSFEEFQVLVKKISQ
notes: Negative control and parental host protein
On to B2, for which the binding result in assay [2] is given as “no binding (tested: 50 µM)”.
